For this assay, the target named is T1, nbr1_human NBR1 (UniProt Q14596).
T1 sequence: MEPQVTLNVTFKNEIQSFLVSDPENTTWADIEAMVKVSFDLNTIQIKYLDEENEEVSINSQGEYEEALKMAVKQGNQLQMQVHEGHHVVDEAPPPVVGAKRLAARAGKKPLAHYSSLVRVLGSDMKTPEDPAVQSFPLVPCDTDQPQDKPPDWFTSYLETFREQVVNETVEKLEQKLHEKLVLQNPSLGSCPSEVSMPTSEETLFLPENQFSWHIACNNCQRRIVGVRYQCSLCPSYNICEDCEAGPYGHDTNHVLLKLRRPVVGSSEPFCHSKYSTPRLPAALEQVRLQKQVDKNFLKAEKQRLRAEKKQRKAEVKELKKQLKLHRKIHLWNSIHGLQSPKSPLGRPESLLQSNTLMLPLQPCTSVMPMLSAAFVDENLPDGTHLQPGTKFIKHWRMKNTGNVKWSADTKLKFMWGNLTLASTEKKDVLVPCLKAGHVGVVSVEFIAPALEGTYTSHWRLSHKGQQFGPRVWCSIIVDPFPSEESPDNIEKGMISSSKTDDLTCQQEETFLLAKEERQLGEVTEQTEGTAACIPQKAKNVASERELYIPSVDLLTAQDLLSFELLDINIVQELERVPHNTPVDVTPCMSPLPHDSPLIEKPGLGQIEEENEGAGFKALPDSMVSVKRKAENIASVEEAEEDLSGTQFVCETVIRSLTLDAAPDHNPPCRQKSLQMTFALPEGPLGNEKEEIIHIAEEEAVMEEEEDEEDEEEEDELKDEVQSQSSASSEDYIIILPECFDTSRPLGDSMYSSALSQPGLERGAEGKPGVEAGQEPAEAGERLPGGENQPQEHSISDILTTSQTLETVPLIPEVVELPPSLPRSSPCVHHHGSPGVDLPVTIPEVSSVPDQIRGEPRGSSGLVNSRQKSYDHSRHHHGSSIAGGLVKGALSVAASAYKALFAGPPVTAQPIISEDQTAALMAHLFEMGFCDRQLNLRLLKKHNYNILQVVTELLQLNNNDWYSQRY

As to “Polyubiquitin-C (Homo sapiens) (from UniProt P0CG48) K48R”, the “effect of a mutation on the interaction” value was “decreasing interaction”.

As for “Polyubiquitin-C (Homo sapiens) (from UniProt P0CG48) K63R”, the “effect of a mutation on the interaction” value is recorded as “decreasing interaction”.

As to “Polyubiquitin-C (Homo sapiens) (from UniProt P0CG48) K33R”, the “effect of a mutation on the interaction” value is given as “decreasing interaction”.

Source of the values: IntAct's records for PubMed 19427866.
